Where no end group is shown, it is not given here.

For test [1], the target named is Murine APRIL (K104-L241) thioredoxin fusion protein (murine) (UniProt Q9D777). The test is described as follows: SPR (BIAcore 3000), APRIL immobilized, receptor as analyte, 1:1 model. (SPR reads the build-up and loss of mass on a sensor chip optically.)
The target in test [2] is T1, Human BAFF (residues 82-285) (human, UniProt Q9Y275 82-285).
T1 construct: also called BAFF82-285
The test is described as follows: competition ELISA; immobilized BAFF, biotinylated miniBR3 tracer (FIG. 7). A general note: ELISA stands for enzyme-linked immunosorbent assay.
Protocol: The plate was washed with PBS and blocked for 1 hr with 200 μl of 0.2% BSA in PBS at room temperature. […] The plate was washed with PBS/Tween-20 and incubated with 100 μl/well of 0.1 U/ml Streptavidin-POD (Boehringer Mannheim) for 15 minutes at room temperature. After washing the plate with PBS/0.05% Tween-20 followed by a final wash in PBS, the plate was incubated for 5 min with 100 μl/well PBS substrate solution containing 0.8 mg/ml OPD (Sigma) and 0.01% H₂O₂.

Test [3] concerns the target T1, Human BAFF (residues 82-285). Put plainly: SPR (BIAcore 3000), BAFF immobilized, receptor as analyte.
Protocol: Measurement of binding constants for receptors to ligands. […] CM5 chips from BIAcore were docked according to manufacturer instructions. Then, BIAcore system was primed with 0.2 μm filtered buffer containing 10 mM Hepes pH 7.2, 150 mM NaCl, 0.005% Tween20. After buffer priming, the flow cells were normalized with 70% glycerol. Each flow cell surface was activated individually in preparation for linkage of the ligand to the chip with a 1:1 mixture of EDC(N-ethyl-N′-(3-dimethyl aminopropyl)-carbodiimide hydrochloride) and NHS(N-hydroxysuccinimide). […] Generally, the ligand to be immobilized (30 μg/ml in 10 mM NaOAc, pH 5 buffer) was injected into the system at 40 μl/min. Once approximately 400 RU was generated, the flow cell was blocked with ethanolamine. […] The system was then primed again.
The ligand-receptor complex was allowed to dissociate by washing the flow cell at 30 μl/min for 600 seconds. Alternatively, if several binding measurements over the same flow cell were to be performed, the ligand-receptor complex was allowed to dissociate by washing the flow cell at 30 μl/min for 900 seconds. Sensorgrams were recorded for each binding assay. A 1:1 Langmuir binding equation was used to simultaneously fit the association and dissociation rates of the ligand-analyte interactions. kₐ, kd, KD were calculated using curve fit analysis software provided with the BiaCore instrument

T1 sequence (Q9Y275 82-285): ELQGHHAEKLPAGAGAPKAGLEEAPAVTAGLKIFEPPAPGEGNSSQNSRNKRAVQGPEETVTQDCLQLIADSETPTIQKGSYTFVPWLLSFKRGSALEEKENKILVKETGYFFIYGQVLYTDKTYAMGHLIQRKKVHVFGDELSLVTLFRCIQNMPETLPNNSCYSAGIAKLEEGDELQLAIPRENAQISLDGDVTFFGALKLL
Sequence of Murine APRIL (K104-L241) thioredoxin fusion protein (murine) (Q9D777 104-241, form in doubt): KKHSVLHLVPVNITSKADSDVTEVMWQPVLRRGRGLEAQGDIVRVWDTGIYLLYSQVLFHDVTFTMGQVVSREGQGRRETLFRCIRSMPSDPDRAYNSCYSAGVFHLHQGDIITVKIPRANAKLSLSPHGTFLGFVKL

As a reminder, the koff is the first-order rate constant of dissociation. By IC50 is commonly meant the concentration needed to halve the response being measured. A lower IC50 goes with greater potency in that assay. Turning to AGQCSQNEYFDSLLHACIPCQLRCSSNTPPLTCQRYCNASVTNSVKG (Fc fusion, not shown: a dimerising Fc or GST, also called wt BCMA-Fc; BCMA-Fc wt) [BCMA-Fc (BCMA(wt)-Fc immunoadhesin)], the koff in test [1] was 0.0001 s⁻¹. This molecule also yielded an IC50 in test [2] of 7 to 10 nM.

B1: BCMA ECD from baculovirus expression (human BCMA residues 4-53, His-tagged) (receptor, not shown: small tags and cut ends)
chain: MAGQCSQNEYFDSLLHACIPCQLRCSSNTPPLTCQRYCNASVTNSVKGTN
modifications: not fully specified (N-terminus); ends and bridges not checked; also: mixture of glycosylated and non-glycosylated species
notes: also called BCMA(baculovirus); baculovirus BCMA
For B1, the binding result in test [3] was “no binding (tested: analyte 6.25 nM to 200 nM)”.
